# Laboratory results as given in patent US20080234198A1 (Eli Lilly, published 2008).
# Where a chain is given by its changes, count along the chain named. *1 amine or outer side, *2 acyl side, *3 side chain or, on linkers, in order; H or OH if unused. [ ]: non-standard residue; d: D form. The star is where a group is joined. Tyr(OMe) = methoxy tyrosine, COc1ccc(C[C@H](N[*:1])C(=O)[*:2])cc1; WPEG40K = not defined here; Orn = NCCC[C@H](N)C(=O)O; Abu = CC[C@H](N)C(=O)O; Hexanoyl = CCCCCC(=O)*; Aib = CC(C)(N)C(=O)O
# T1: rat VPAC1 receptor (rat, UniProt P30083 31-459)
# T1 sequence (looked up): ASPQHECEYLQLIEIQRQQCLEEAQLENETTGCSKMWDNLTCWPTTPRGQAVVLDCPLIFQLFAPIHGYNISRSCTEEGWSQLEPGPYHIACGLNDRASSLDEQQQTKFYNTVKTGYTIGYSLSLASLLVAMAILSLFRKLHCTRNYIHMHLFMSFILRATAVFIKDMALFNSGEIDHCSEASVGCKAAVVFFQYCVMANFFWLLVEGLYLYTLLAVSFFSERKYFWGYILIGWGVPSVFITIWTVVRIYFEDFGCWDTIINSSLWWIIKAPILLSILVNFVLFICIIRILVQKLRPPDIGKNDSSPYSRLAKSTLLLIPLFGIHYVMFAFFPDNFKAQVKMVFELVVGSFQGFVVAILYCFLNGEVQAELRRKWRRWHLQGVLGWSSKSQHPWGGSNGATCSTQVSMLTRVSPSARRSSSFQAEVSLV
# T2: rat VPAC2 receptor (rat, UniProt P35000 23-437)
# T2 sequence (looked up): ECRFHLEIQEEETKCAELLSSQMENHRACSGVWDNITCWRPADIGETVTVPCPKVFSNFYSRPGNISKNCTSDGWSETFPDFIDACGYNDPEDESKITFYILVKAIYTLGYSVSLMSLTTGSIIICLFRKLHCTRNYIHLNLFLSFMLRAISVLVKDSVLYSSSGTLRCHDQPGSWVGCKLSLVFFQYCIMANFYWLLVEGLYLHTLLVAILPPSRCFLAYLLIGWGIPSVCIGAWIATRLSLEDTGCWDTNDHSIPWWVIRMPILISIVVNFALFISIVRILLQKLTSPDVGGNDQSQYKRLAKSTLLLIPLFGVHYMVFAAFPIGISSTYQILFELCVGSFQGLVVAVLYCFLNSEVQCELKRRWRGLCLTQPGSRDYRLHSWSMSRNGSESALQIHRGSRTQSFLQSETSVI
# T3: human VPAC2 receptor (human, UniProt P41587 24-438)
# T3 sequence (looked up): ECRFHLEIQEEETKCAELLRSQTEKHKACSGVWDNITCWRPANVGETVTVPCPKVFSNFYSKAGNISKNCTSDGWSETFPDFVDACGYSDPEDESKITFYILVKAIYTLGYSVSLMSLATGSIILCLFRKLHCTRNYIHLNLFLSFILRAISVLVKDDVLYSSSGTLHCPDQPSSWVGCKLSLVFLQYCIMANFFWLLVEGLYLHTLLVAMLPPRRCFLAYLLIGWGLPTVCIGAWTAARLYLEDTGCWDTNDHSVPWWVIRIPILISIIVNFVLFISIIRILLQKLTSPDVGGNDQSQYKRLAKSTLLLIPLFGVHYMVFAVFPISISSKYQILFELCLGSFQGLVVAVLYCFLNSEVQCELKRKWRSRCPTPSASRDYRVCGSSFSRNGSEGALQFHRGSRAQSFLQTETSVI
# B1: P557 (peptide)
# peptide: Hexanoyl-HSDAVFTEQ[Tyr(OMe)]T[Orn]LRK(WPEG40K)QLA[Abu][Aib][Orn]YLQ[Aib]I[Orn][Orn]GGPSSGAPPPS-NH2
# modifications: reading uncertain
# B2: P529 (peptide)
# peptide: HSDAVFTEQYTXLRXQVAAXXYLQSIXXGGPSSGAPPPS
# modifications: not fully specified; C6-HSDAVFTEQY(OMe)TOrnLRK(WPEG40K)QVAAAibOrnYLQSIOrnOrnGGPSSGAPPPS-NH2
# B3: P490 (peptide)
# peptide: B2 peptide with Q24X, S39C
# modifications: C6-HSDAVFTEQY(OMe)TOrnLRAibQVAAAibOrnYLK(CO(CH2)2SPEG20K)SIOrnOrnGGPSSGAPPPC(PEG20K)-NH2
# B4: P483 (peptide)
# peptide: B2 peptide with X15C
# modifications: C6-HSDAVFTEQY(OMe)TOrnLRC(PEG40K)QVAAAibOrnYLQSIOrnOrnGGPSSGAPPPS-NH2
# B5: P475 (peptide)
# peptide: B2 peptide
# modifications: C6-HSDAVFTEQY(OMe)TOrnLRAibQVAAK(CO(CH2)2SPEG40K)OrnYLQSIOrnOrnGGPSSGAPPPS-NH2
# B6: P485 (peptide)
# peptide: B2 peptide
# modifications: C6-HSDAVFTEQY(OMe)TOrnLRK(CO(CH2)2SPEG40K)QVAAAibOrnYLQSIOrnOrnGGPSSGAPPPS-NH2
# B7: P531 (peptide)
# peptide: B2 peptide with Q24X
# modifications: C6-HSDAVFTEQY(OMe)TOrnLRAibQVAAAibOrnYLK(WPEG40K)SIOrnOrnGGPSSGAPPPS-NH2
# B8: P537 (peptide)
# peptide: HSDAVFTEQYTXLRXQLAXXXYLQXIXCXGGPSSGAPPPS
# modifications: C6-HSDAVFTEQY(OMe)TOrnLRAibQLAAbuAibOrnYLQAibIOrnC(PEG40K)OrnGGPSSGAPPPS-NH2
# B9: P566 (peptide)
# peptide: B8 peptide with X25S, C28X, X29C
# modifications: C6-HSDAVFTEQY(OMe)TOrnLRAibQLAAbuAibOrnYLQSIOrnOrnC(PEG40K)GGPSSGAPPPS-NH2
# B10: P560 (peptide)
# peptide: B8 peptide with X19A, X25S, C28X, X29C
# modifications: C6-HSDAVFTEQY(OMe)TOrnLRAibQLAAAibOrnYLQSIOrnOrnC(PEG40K)GGPSSGAPPPS-NH2
# Target: T1, rat VPAC1 receptor
# Assay: cell-based or functional assay
row,Binder,Rat VPAC1 Receptor: DiscoveRx: (EC50; nM) [nM]
1,B1,581
2,B2,1180
3,B3,> 1000
4,B4,224
5,B5,> 1000
6,B6,735
7,B7,301
8,B8,206
9,B9,52.7
10,B10,156

# Target: T2, rat VPAC2 receptor
# Assay: cell-based or functional assay
row,Binder,Rat VPAC2 Receptor: DiscoveRx: (EC50; nM) [nM]
1,B1,397
2,B2,199
3,B3,192
4,B4,128
5,B5,220
6,B6,42.5
7,B7,69.9
8,B8,38.8
9,B9,13.1
10,B10,20.4

# Target: T3, human VPAC2 receptor
# Assay: cell-based or functional assay
Binder,Human VPAC2 Receptor: DiscoveRx (EC50; nM) [nM],Human VPAC2 Receptor: Alphascreen (EC50; nM) [nM]
B1,108,–
B2,–,170
B3,–,116
B4,–,33.5
B5,–,109
B6,–,44.5
B7,–,94.6
B8,–,32
B9,7.8,11.8
B10,11.3,13.8

# Target: T3, human VPAC2 receptor
# Assay: filter binding, VPAC2 cell membranes, displacement of 125I-VIP
# Experimental: Binding assays: Membrane prepared from a stable VPAC2 cell line (see Example 3) or from cells transiently transfected with human VPAC1 or PAC1 are used.
# The assay plate is filled with 25 μL assay buffer, 25 μL membranes (2.5 μg) suspended in assay buffer, 25 μL agonist in assay buffer, and 25 μL tracer (about 40000 cpm) in assay buffer. The filled plate is incubated for 1 hour with shaking.
# The transfer from assay plate to filter plate is conducted. The blocking buffer is aspirated by vacuum filtration and washed two times with flush buffer. 90 μL is transferred from the assay plate to the filter plate. The 90 μL transferred from assay plate is aspirated and washed three times with 200 μL flush buffer. The plastic support is removed. It is dried for 1 hour at 60° C. 30 μL Microscint is added. The count is performed.
row,Binder,IC50 [µM]
1,B1,0.38
2,B2,0.192
3,B3,0.0132
4,B4,0.0373
5,B5,0.436
6,B6,0.0173
7,B7,0.0697
8,B8,0.0172
9,B9,0.0082
10,B10,0.0116
